Source: patent US20120316071A1 (published 2012)

B1: Fab VH1-46_IGHD6-6*01_IGHJ1*01 S102A/S103P/S104F/H111F (APFF) & L6_IGKJ1*01 (Fab, V domains shown)
VH: QVQLVQSGAEVKKPGASVKVSCKASGYTFTSYYMHWVRQAPGQGLEWMGIINPSGGSTSYAQKFQGRVTMTRDTSTSTVYMELSSLRSEDTAVYYCAREEYAPFSAEYFQFWGQGTLVTVSS
VL: not shown
notes: Fab made in E. coli; The constant parts (CH1 with His6 and Flag tags from plasmid A, kappa CL from plasmid C) are not added here; also called H:APFF & L:wt; APFF & parent
B2: Fab VH1-46_IGHD6-6*01_IGHJ1*01 S102A/S103P/S104F/H111F (APFF) & L6_IGKJ1*01 S30A (Fab, V domains shown)
VH: QVQLVQSGAEVKKPGASVKVSCKASGYTFTSYYMHWVRQAPGQGLEWMGIINPSGGSTSYAQKFQGRVTMTRDTSTSTVYMELSSLRSEDTAVYYCAREEYAPFSAEYFQFWGQGTLVTVSS
VL: EIVLTQSPATLSLSPGERATLSCRASQSVASYLAWYQQKPGQAPRLLIYDASNRATGIPARFSGSGSGTDFTLTISSLEPEDFAVYYCQQRSNWPPWTFGQGTKVEIKR
notes: Fab made in E. coli; The constant parts (CH1 with His6 and Flag tags from plasmid A, kappa CL from plasmid C) are not added here; also called APFF & S30A
B3: Fab VH1-46_IGHD6-6*01_IGHJ1*01 S102A/S103P/S104F/H111F (APFF) & L6_IGKJ1*01 S30G (Fab, V domains shown)
VH: QVQLVQSGAEVKKPGASVKVSCKASGYTFTSYYMHWVRQAPGQGLEWMGIINPSGGSTSYAQKFQGRVTMTRDTSTSTVYMELSSLRSEDTAVYYCAREEYAPFSAEYFQFWGQGTLVTVSS
VL: EIVLTQSPATLSLSPGERATLSCRASQSVGSYLAWYQQKPGQAPRLLIYDASNRATGIPARFSGSGSGTDFTLTISSLEPEDFAVYYCQQRSNWPPWTFGQGTKVEIKR
notes: Fab made in E. coli; The constant parts (CH1 with His6 and Flag tags from plasmid A, kappa CL from plasmid C) are not added here; also called APFF & S30G
B4: Fab VH1-46_IGHD6-6*01_IGHJ1*01 S102A/S103P/S104F/H111F (APFF) & L6_IGKJ1*01 S30N (Fab, V domains shown)
VH: QVQLVQSGAEVKKPGASVKVSCKASGYTFTSYYMHWVRQAPGQGLEWMGIINPSGGSTSYAQKFQGRVTMTRDTSTSTVYMELSSLRSEDTAVYYCAREEYAPFSAEYFQFWGQGTLVTVSS
VL: EIVLTQSPATLSLSPGERATLSCRASQSVNSYLAWYQQKPGQAPRLLIYDASNRATGIPARFSGSGSGTDFTLTISSLEPEDFAVYYCQQRSNWPPWTFGQGTKVEIKR
notes: Fab made in E. coli; The constant parts (CH1 with His6 and Flag tags from plasmid A, kappa CL from plasmid C) are not added here; also called APFF & S30N
B5: Fab VH1-46_IGHD6-6*01_IGHJ1*01 S102A/S103P/S104F/H111F (APFF) & L6_IGKJ1*01 S30P (Fab, V domains shown)
VH: QVQLVQSGAEVKKPGASVKVSCKASGYTFTSYYMHWVRQAPGQGLEWMGIINPSGGSTSYAQKFQGRVTMTRDTSTSTVYMELSSLRSEDTAVYYCAREEYAPFSAEYFQFWGQGTLVTVSS
VL: EIVLTQSPATLSLSPGERATLSCRASQSVPSYLAWYQQKPGQAPRLLIYDASNRATGIPARFSGSGSGTDFTLTISSLEPEDFAVYYCQQRSNWPPWTFGQGTKVEIKR
notes: Fab made in E. coli; The constant parts (CH1 with His6 and Flag tags from plasmid A, kappa CL from plasmid C) are not added here; also called APFF & S30P
B6: Fab VH1-46_IGHD6-6*01_IGHJ1*01 S102A/S103P/S104F/H111F (APFF) & L6_IGKJ1*01 S30Q (Fab, V domains shown)
VH: QVQLVQSGAEVKKPGASVKVSCKASGYTFTSYYMHWVRQAPGQGLEWMGIINPSGGSTSYAQKFQGRVTMTRDTSTSTVYMELSSLRSEDTAVYYCAREEYAPFSAEYFQFWGQGTLVTVSS
VL: EIVLTQSPATLSLSPGERATLSCRASQSVQSYLAWYQQKPGQAPRLLIYDASNRATGIPARFSGSGSGTDFTLTISSLEPEDFAVYYCQQRSNWPPWTFGQGTKVEIKR
notes: Fab made in E. coli; The constant parts (CH1 with His6 and Flag tags from plasmid A, kappa CL from plasmid C) are not added here; also called APFF & S30Q
B7: Fab VH1-46_IGHD6-6*01_IGHJ1*01 S102A/S103P/S104F/H111F (APFF) & L6_IGKJ1*01 S30R (Fab, V domains shown)
VH: QVQLVQSGAEVKKPGASVKVSCKASGYTFTSYYMHWVRQAPGQGLEWMGIINPSGGSTSYAQKFQGRVTMTRDTSTSTVYMELSSLRSEDTAVYYCAREEYAPFSAEYFQFWGQGTLVTVSS
VL: EIVLTQSPATLSLSPGERATLSCRASQSVRSYLAWYQQKPGQAPRLLIYDASNRATGIPARFSGSGSGTDFTLTISSLEPEDFAVYYCQQRSNWPPWTFGQGTKVEIKR
notes: Fab made in E. coli; The constant parts (CH1 with His6 and Flag tags from plasmid A, kappa CL from plasmid C) are not added here; also called APFF & S30R
B8: Fab VH1-46_IGHD6-6*01_IGHJ1*01 S102A/S103P/S104F/H111F (APFF) & L6_IGKJ1*01 S30T (Fab, V domains shown)
VH: QVQLVQSGAEVKKPGASVKVSCKASGYTFTSYYMHWVRQAPGQGLEWMGIINPSGGSTSYAQKFQGRVTMTRDTSTSTVYMELSSLRSEDTAVYYCAREEYAPFSAEYFQFWGQGTLVTVSS
VL: EIVLTQSPATLSLSPGERATLSCRASQSVTSYLAWYQQKPGQAPRLLIYDASNRATGIPARFSGSGSGTDFTLTISSLEPEDFAVYYCQQRSNWPPWTFGQGTKVEIKR
notes: Fab made in E. coli; The constant parts (CH1 with His6 and Flag tags from plasmid A, kappa CL from plasmid C) are not added here; also called APFF & S30T
B9: Fab VH1-46_IGHD6-6*01_IGHJ1*01 S102A/S103P/S104F/H111F (APFF) & L6_IGKJ1*01 S30V (Fab, V domains shown)
VH: QVQLVQSGAEVKKPGASVKVSCKASGYTFTSYYMHWVRQAPGQGLEWMGIINPSGGSTSYAQKFQGRVTMTRDTSTSTVYMELSSLRSEDTAVYYCAREEYAPFSAEYFQFWGQGTLVTVSS
VL: EIVLTQSPATLSLSPGERATLSCRASQSVVSYLAWYQQKPGQAPRLLIYDASNRATGIPARFSGSGSGTDFTLTISSLEPEDFAVYYCQQRSNWPPWTFGQGTKVEIKR
notes: Fab made in E. coli; The constant parts (CH1 with His6 and Flag tags from plasmid A, kappa CL from plasmid C) are not added here; also called APFF & S30V
B10: Fab VH1-46_IGHD6-6*01_IGHJ1*01 S102A/S103P/S104F/H111F (APFF) & L6_IGKJ1*01 S31A (Fab, V domains shown)
VH: QVQLVQSGAEVKKPGASVKVSCKASGYTFTSYYMHWVRQAPGQGLEWMGIINPSGGSTSYAQKFQGRVTMTRDTSTSTVYMELSSLRSEDTAVYYCAREEYAPFSAEYFQFWGQGTLVTVSS
VL: EIVLTQSPATLSLSPGERATLSCRASQSVSAYLAWYQQKPGQAPRLLIYDASNRATGIPARFSGSGSGTDFTLTISSLEPEDFAVYYCQQRSNWPPWTFGQGTKVEIKR
notes: Fab made in E. coli; The constant parts (CH1 with His6 and Flag tags from plasmid A, kappa CL from plasmid C) are not added here; also called APFF & S31A

target: T1, Recombinant Human DLL4 (delta-like protein 4) (human, UniProt Q9NR61 27-524); assay: ECL (MSD) multispot binding assay, antigen spotted on plate, Fab in solution;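 note: purified Fab incubated 1 h at 20 °C, detected via TAG-labelled antibody electrochemiluminescence, antigen spot compared with the blank in the same well, ratio at least 4 counted as hit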
T1 construct: Bought recombinant human DLL4 (R&D Systems Cat#1506-D4/CF); also called rHuman DLL4

Going from B1 to B2, the Signal/Blank rises from 389 to 1010.

Going from B3 to B4, the Signal/Blank falls from 506 to 497.

Going from B5 to B6, the Signal/Blank rises from 4.2 to 602.

Compared with B7, B8 is lower in Signal/Blank: 682 for the first, 348 for the second.

Compared with B9, B10 is higher in Signal/Blank: 497 for the first, 882 for the second.

First: B2
Second: B3
The “ECL signal” value of the first is higher: 187000 for the first, 178000 for the second.

First: B4
Second: B5
The “ECL signal” value of the first is higher: 175000 for the first, 1260 for the second.

First: B6
Second: B7
The “ECL signal” value of the first is higher: 197000 for the first, 189000 for the second.

Going from B8 to B9, the “ECL signal” value rises from 136000 to 141000.
